# Test results from publication PMC8717925 (Nature structural & molecular biology, 2020).
# T1: Dip1 (S. pombe WISH/DIP/SPIN90 family nucleation promoting factor) (S. pombe, UniProt O74771 1-374)
# T1 sequence (looked up): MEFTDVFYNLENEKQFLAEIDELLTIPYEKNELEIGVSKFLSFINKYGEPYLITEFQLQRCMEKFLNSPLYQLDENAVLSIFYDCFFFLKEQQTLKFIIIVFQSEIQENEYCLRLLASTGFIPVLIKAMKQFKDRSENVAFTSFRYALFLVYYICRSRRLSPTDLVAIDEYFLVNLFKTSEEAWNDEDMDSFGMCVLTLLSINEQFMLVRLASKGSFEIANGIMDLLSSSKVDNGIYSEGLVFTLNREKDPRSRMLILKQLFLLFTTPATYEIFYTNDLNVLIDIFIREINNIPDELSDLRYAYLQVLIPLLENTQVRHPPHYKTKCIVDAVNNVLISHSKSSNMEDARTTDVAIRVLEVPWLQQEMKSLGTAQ
# B1: ARPC2 subunit of S. pombe Arp2/3 complex (natural protein)
# chain: MLSLDYNNIFIYELLTERFSSENPSSIDQVVTDFDGVTFHISTPEEKTKILISLSMKCYPELVNYGTLDLLKQIYGAYVHEPEMGYNFSILIDLQQLPATDEEKEQLAMSISMLKRNVLAAPFHRAFTKQAELADLARKDPENAPMLDKQATSQELMAIHYRDEETIVLWPEHDRVTVVFSTKFREETDRIFGKVFLQEFVDARRRPAIQTAPQVLFSYRDPPLEIRDIQGIQKGDDFGFVTFVLFERHFTPQNREDCISHIQVFRNTLHFHIKASKAYMHQRMRKRVADFQKVLNRAKPDVELERKTATGRSFVRA
# Experiments:
# [1] = target: B1; test: cryo-EM structure
# [2] = target: T1, Dip1 (S. pombe WISH/DIP/SPIN90 family …); test: cryo-EM structure
binding result [1],binding result [2],Binder
binds,binds,ARPC4 subunit of S. pombe Arp2/3 complex (natural protein) not shown
,binds,B1
